Source: publication PMC2914671, “A VLP-based vaccine targeting domain III of the West Nile virus E protein protects from lethal infection in mice” (Virology Journal, 2010)

Molecular target: the molecule itself
Assay: transmission electron microscopy; purified AP205 VLPs adsorbed onto carbon-Formvar-coated grids, stained with 2% phosphotungstic acid

B1: AP205 virus-like particles (recombinantly expressed coat protein of bacteriophage AP205) (natural protein)
chain: MANKPMQPITSTANKIVWSDPTRLSTTFSASLLRQRVKVGIAELNNVSGQYVSVYKRPAPKPEGCADACVIMPNENQSIRTVISGSAENLATLKAEWETHKRNVDTLFASGNAGLGFLDPTAAIVSSDTTA
notes: coat protein of the Acinetobacter bacteriophage AP205; monomer 14.0 kDa; The VLPs hold about 25-30 ug of host cell RNA per 100 ug of coat protein; also called AP205 VLPs; AP205 VLP carrier; source: E. coli, purified from cleared lysates (Fractogel TMAE anion exchange, hydroxyapatite); copies: 180
binding result: binds
